Consider 38 sequences from the supplement of paper PMC7877785.

± gives the uncertainty stated by the source.

The nature of this data set: self-splicing fitness, log relative to wild type (ln ratio); higher = more splicing; Tetrahymena group I intron in knt gene, E. coli kanamycin selection, DiMSum; sequences stand for … in CUCUCU…GGAGGGAAAAGUUAUCAGGCAUGCACCUGGUAGCUAGUCUUUAAACCAAUAGAUUGCAUCGGUUUAAAAGGCAAGACCGUCAAAUUGCGGGAAAGGGGUCAACAGCCGUUCAGUACCAAGUCUCAGGGGAAACUUUGAGAUGGCCUUGCAAAGGGUAUGGUAAUAAGCUGACGGACAUGGUCCUAACCACGCAGCCAAGUCCUAAGUCAACAGAUCUUCUGUUGAUAUGGAUGCAGUUCACAGACUAAAUGUCGGUCGGGGAAGAUGUAUUCUUCUCAUAAGAUAUAGUCGGACCUCUCCUUAAUGGGAGCUAGCGGAUGAAGUGAUGCAACACUGGAGCCGCUGGGAACUAAUUUGUAUGCGAAAGUAUAUUGAUUAGUUUUGGAGUACUCGUGGUCG
An outline of the steps: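 Library with all eight P1ex-region intron nucleotides randomised, intron inside the knt kanamycin-resistance gene on pET-22b(+), in E. coli BL21(DE3). Cells grew overnight at 37°C or 30°C on LB agar with or without 25 μg/mL kanamycin (plus 100 μg/mL carbenicillin, 50 μM IPTG, 0.2% rhamnose), in six replicate transformations. Pooled colonies were amplicon-sequenced on Illumina HiSeq 2500. DiMSum fitness is the error-weighted combination of wild-type-normalised replicate fold changes, kanamycin versus none.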

With GAGCAGCAAUAUUACGACCC, the “self-splicing fitness (ln)” value by setting is: (30 °C) 0.0587 ± 0.081; (37 °C) -0.0685 ± 0.098.
The corresponding values for UUCCAGCAAUAUUACGCACG are -1.72 ± 0.086 and -0.884 ± 0.13.
In the case of CCACAGCAAUAUUACGCGAU, the “self-splicing fitness (ln)” value was -3.36 ± 0.17 (30 °C) and -3.66 ± 0.21 (37 °C).
On to UGCUAGCAAUAUUACGGGCU, for which the “self-splicing fitness (ln)” value is, setting by setting: (30 °C) -2.57 ± 0.13; (37 °C) -1.89 ± 0.14.
Turning to UAUCAGCAAUAUUACGAUAC, the “self-splicing fitness (ln)” value (30 °C) is -3.07 ± 0.28 and the “self-splicing fitness (ln)” value (37 °C) was -1.85 ± 0.25.
The corresponding values for CGGAAGCAAUAUUACGGAUG are -2.02 ± 0.073 and -0.785 ± 0.086.
Take CGUGAGCAAUAUUACGGGGC: the “self-splicing fitness (ln)” value (30 °C) was -3.54 ± 0.28 and the “self-splicing fitness (ln)” value (37 °C) was -2.03 ± 0.2.
With AGGAAGCAAUAUUACGGCCA, the “self-splicing fitness (ln)” value was -0.118 ± 0.14 (30 °C) and 0.223 ± 0.19 (37 °C).
For the sequence GUUUAGCAAUAUUACGGCCC, the “self-splicing fitness (ln)” value (30 °C) is -1.66 ± 0.29.
As for GUCCAGCAAUAUUACGUACA, the “self-splicing fitness (ln)” value (30 °C) is -1.73 ± 0.1 and the “self-splicing fitness (ln)” value (37 °C) was -0.367 ± 0.1.
Consider AAUGAGCAAUAUUACGACAG, for which the “self-splicing fitness (ln)” value is -3.71 ± 0.29 (30 °C) and -1.85 ± 0.26 (37 °C).
For UGCAAGCAAUAUUACGGCGC, in that order: -3.27 ± 0.18 and -2.84 ± 0.31.
For the sequence CACCAGCAAUAUUACGCGUU, the “self-splicing fitness (ln)” value (30 °C) is -2.15 ± 0.062 and the “self-splicing fitness (ln)” value (37 °C) is -0.539 ± 0.067.
Take ACCAAGCAAUAUUACGUAUU: the “self-splicing fitness (ln)” value by setting is: (30 °C) -3.77 ± 0.14; (37 °C) -2.07 ± 0.12.
In the case of CUGCAGCAAUAUUACGGGAU, the “self-splicing fitness (ln)” value by setting is: (30 °C) -2.46 ± 0.096; (37 °C) -2.1 ± 0.15.
Regarding UAUAAGCAAUAUUACGGGCU, the “self-splicing fitness (ln)” value (30 °C) is -2.64 ± 0.31 and the “self-splicing fitness (ln)” value (37 °C) is -1.71 ± 0.31.
As for CCUGAGCAAUAUUACGCAGA, the “self-splicing fitness (ln)” value is -3.44 ± 0.23 (30 °C) and -1.96 ± 0.15 (37 °C).
Take GAGCAGCAAUAUUACGCAUA: the “self-splicing fitness (ln)” value reads like this: (30 °C) -1.11 ± 0.099; (37 °C) -0.606 ± 0.14.
As for UAGGAGCAAUAUUACGCUUA, the “self-splicing fitness (ln)” value was -1.49 ± 0.18 (30 °C) and -0.834 ± 0.27 (37 °C).
As to GUUUAGCAAUAUUACGAAGC, where the note is “37 °C”, the “self-splicing fitness (ln)” value is -1.3 ± 0.31.
Turning to GUUGAGCAAUAUUACGUUGG, the “self-splicing fitness (ln)” value is, setting by setting: (30 °C) -4.19 ± 0.28; (37 °C) -2.01 ± 0.31.
With AAUUAGCAAUAUUACGAUUC, the “self-splicing fitness (ln)” value runs as follows: (30 °C) -2.85 ± 0.24; (37 °C) -1.13 ± 0.34.
As for AUCAAGCAAUAUUACGCCGA, the “self-splicing fitness (ln)” value is -1.02 ± 0.14 (30 °C) and -0.375 ± 0.17 (37 °C).
For GUCAAGCAAUAUUACGCGUC, the “self-splicing fitness (ln)” value reads like this: (30 °C) -2.99 ± 0.15; (37 °C) -2.22 ± 0.19.
Turning to AUUCAGCAAUAUUACGGGGA, the “self-splicing fitness (ln)” value by setting is: (30 °C) -1.93 ± 0.094; (37 °C) -0.802 ± 0.083.
For the sequence AUGUAGCAAUAUUACGAAGC, the “self-splicing fitness (ln)” value (30 °C) was -3.22 ± 0.37 and the “self-splicing fitness (ln)” value (37 °C) turned out to be 0.239 ± 0.23.
Regarding AUCGAGCAAUAUUACGGAUA, the “self-splicing fitness (ln)” value (30 °C) is -3.67 ± 0.33 and the “self-splicing fitness (ln)” value (37 °C) was -1.92 ± 0.25.
Turning to GCUCAGCAAUAUUACGCUCU, the “self-splicing fitness (ln)” value by setting is: (30 °C) -1.09 ± 0.082; (37 °C) 0.39 ± 0.12.
In the case of CGGUAGCAAUAUUACGUCAU, the “self-splicing fitness (ln)” value was -3.21 ± 0.14 (30 °C) and -2.56 ± 0.15 (37 °C).
Consider ACACAGCAAUAUUACGCCAA, for which the “self-splicing fitness (ln)” value (30 °C) was -2.36 ± 0.11 and the “self-splicing fitness (ln)” value (37 °C) was -2.54 ± 0.14.
CUGGAGCAAUAUUACGUCCC: the “self-splicing fitness (ln)” value (37 °C) was -1.4 ± 0.46.
Take CUUGAGCAAUAUUACGAAGU: the “self-splicing fitness (ln)” value was -3.67 ± 0.33 (30 °C) and -3.38 ± 0.35 (37 °C).
Consider CCAGAGCAAUAUUACGCGGA, for which the “self-splicing fitness (ln)” value (30 °C) is -3.2 ± 0.34 and the “self-splicing fitness (ln)” value (37 °C) was -2.49 ± 0.24.
For UAAGAGCAAUAUUACGUGCA, the “self-splicing fitness (ln)” value (30 °C) was -2.09 ± 0.2 and the “self-splicing fitness (ln)” value (37 °C) is -0.84 ± 0.2.
The corresponding values for GCUAAGCAAUAUUACGGGCA are -1.52 ± 0.098 and -1.11 ± 0.13.
Turning to CUCAAGCAAUAUUACGUUCG, the “self-splicing fitness (ln)” value runs as follows: (30 °C) -3.18 ± 0.18; (37 °C) -3 ± 0.26.
Turning to CAACAGCAAUAUUACGGGUG, the “self-splicing fitness (ln)” value reads like this: (30 °C) -1.65 ± 0.051; (37 °C) -0.569 ± 0.057.
On to UCUGAGCAAUAUUACGUGUU, for which the “self-splicing fitness (ln)” value by setting is: (30 °C) -3.93 ± 0.27; (37 °C) -2.55 ± 0.23.
